Measured values from EP4421166A1 (Max-Planck-Gesellschaft zur Förderung der Wissenschaften …, dated 2024).

How the values were obtained:
LKPG-cpHaloΔ2-PDYE = assay: cell-based or functional assay
cpHaloΔ2 = molecular target: T1, cpHaloΔ2; assay: EC50 of the split-HaloTag labeling reaction (fluorescence polarization)
T1 construct: also called linker04/E20S/N119H/V184E/V197K; improved cpHaloΔ variant

cpHaloΔ = molecular target: T2, cpHaloΔ; assay: method not stated
T2 construct: Used as purified protein; also called original cpHaloΔ; first partial effector
T2 sequence (chain, as listed by the source mutant): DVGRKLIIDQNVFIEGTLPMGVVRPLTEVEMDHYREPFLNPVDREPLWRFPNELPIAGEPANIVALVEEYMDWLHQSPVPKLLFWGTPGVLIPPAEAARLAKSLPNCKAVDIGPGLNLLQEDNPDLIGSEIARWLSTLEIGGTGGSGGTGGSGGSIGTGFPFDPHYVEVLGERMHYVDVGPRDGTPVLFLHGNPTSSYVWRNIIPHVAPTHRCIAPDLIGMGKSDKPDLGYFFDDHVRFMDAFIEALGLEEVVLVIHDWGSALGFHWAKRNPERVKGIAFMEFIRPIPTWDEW

T1 sequence (chain, as listed by the source mutant): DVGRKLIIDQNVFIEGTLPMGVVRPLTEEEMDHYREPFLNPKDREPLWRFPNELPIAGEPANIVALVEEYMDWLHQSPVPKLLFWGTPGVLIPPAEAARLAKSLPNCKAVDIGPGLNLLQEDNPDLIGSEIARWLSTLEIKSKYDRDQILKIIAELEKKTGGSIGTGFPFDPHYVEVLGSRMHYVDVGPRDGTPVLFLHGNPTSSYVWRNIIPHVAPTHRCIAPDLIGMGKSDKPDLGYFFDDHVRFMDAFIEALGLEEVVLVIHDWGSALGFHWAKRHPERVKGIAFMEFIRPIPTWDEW
LKPG-cpHaloΔ2-PDYE, sequence (chain, as listed by the source mutant): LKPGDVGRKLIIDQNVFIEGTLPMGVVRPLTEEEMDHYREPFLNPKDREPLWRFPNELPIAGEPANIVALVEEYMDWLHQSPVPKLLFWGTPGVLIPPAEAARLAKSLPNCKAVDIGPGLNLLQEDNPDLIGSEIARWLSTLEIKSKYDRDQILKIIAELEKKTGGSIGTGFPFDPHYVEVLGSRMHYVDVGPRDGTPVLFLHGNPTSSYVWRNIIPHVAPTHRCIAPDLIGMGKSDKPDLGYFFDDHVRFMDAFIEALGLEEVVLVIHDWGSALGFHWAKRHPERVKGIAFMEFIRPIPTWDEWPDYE

Row | EC50 of the labeling reaction (LKPG-cpHaloΔ2-PDYE) [µM] | fold lower EC50 than cpHaloΔ2 (LKPG-cpHaloΔ2-PDYE) [fold] | binding result (cpHaloΔ2) | Kd (cpHaloΔ) [µM] | Binder
1 | 0.000382 | 6.6 | binds | – | RGWSWREMFRLFRT [Hpep RGWSWREMFRLFRT]
2 | – | – | binds | – | RQWSWREMFRLFRT [Hpep RQWSWREMFRLFRT]
3 | – | – | binds | – | RMWTWREMFRLFRT [Hpep RMWTWREMFRLFRT]
4 | – | – | – | 4600 | ARETFQAFRT (Residues 145-154 of HaloTag; also called original Halo-Peptide; original Hpep (10mer)) [Hpep1]
